Reference: publication PMC6327041 (Nature Communications, 2019)

Target: T1, KDM5A1-797 ΔPHD1 (Homo sapiens, UniProt P29375, DEL288-347/INS286GSGSGSG)
T1 construct: The KDM5A1-797 ΔPHD1 construct was generated after removing the residues Ser287-Lys347; His (N, cleaved yes); made in house; host or cells: Sf21 insect cells (baculovirus)
T1 sequence (P29375 with tags, fused parts or gaps INS286GSGSGSG/DEL288-347): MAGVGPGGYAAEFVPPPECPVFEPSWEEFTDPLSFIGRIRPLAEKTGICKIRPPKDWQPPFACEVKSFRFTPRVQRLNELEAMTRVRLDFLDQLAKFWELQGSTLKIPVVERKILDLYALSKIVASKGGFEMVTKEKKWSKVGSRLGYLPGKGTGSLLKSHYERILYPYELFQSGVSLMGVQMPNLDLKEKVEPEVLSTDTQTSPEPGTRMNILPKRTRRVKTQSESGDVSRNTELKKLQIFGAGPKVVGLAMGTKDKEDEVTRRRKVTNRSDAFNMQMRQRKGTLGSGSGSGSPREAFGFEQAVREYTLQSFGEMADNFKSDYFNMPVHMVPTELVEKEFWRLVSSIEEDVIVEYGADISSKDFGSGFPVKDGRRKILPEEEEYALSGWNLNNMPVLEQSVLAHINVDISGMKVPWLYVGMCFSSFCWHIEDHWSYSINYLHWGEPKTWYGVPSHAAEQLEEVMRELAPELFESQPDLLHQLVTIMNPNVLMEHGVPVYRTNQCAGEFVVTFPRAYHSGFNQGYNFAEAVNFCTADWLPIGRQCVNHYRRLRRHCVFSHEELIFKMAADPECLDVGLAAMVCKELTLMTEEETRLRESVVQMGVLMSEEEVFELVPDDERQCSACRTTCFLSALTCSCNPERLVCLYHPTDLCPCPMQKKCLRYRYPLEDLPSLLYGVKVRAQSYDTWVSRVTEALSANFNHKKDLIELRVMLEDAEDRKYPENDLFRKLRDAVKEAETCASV
Assay: KDM5A ΔPHD1 demethylation, formaldehyde release assay
Format: biochemical
Description: The KDM5A1-797 ΔPHD1 construct was generated after removing the residues Ser287-Lys347 and replacing them with a (GS)4 linker before cloning into a pFASTBAC HTA vector. The protocol for expression and purification of the KDM5A1-797 ΔPHD1 construct was the same as WT.
Michaelis–Menten parameters were determined using Graphpad Prism.

[1] = KDM5A1-797 ΔPHD1, n ≥ 3, s.e.m.

Ac-H3K4me3 21mer: N-terminally acetylated 21mer H3K4me3 peptide, catalytic domain substrate
kcat/Km (KDM5A1-797 ΔPHD1): 57.7 ± 13.7 M⁻¹ s⁻¹
Km [1]: 819 ± 133 µM
kcat [1]: 0.0472 ± 0.0035 s⁻¹
increase in Km on PHD1 deletion (ΔPHD1 vs WT KDM5A1-797): eightfold
